Measured values as given in patent US20240124585A1 (SUTRO BIOPHARMA, published 2024).

How the values were obtained:
[1] = target: T1, human CD3 on T-cell lines (CD3-expressing Jurkat cells; HUT78 cells) (human, UniProt P07766 23-207); assay: flow cytometry, HUT78 cells
T1 construct: On cells it stands in the CD3/TCR complex

[2] = target: T2, human CD3 epsilon (Acro Cat #CDE-H5223) (human, UniProt P07766 23-126); assay: SPR (Biacore), antibody captured, human CD3 epsilon analyte
T2 construct: Bought recombinant protein; also called rhCD3E
Experimental: Anti-Fab or anti-Fc polyclonal antibodies were immobilized onto a CM5 chip (GE Life Sciences) using amine coupling chemistry (from Amine Coupling Kit, GE Life Sciences). The immobilization steps were carried out at a flow rate of 25 μl/min in 1×HBS-EP+ buffer (GE Life Sciences; 10× Stock diluted before use). The sensor surfaces were activated for 7 min with a mixture of NHS (0.05 M) and EDC (0.2 M). The Anti-Fab or Anti-Fc antibodies were injected over all 4 flow cells at a concentration of 25 μg/mL in 10 mM sodium acetate, pH 4.5, for 7 min. Ethanolamine (1 M, pH 8.5) was injected for 7 min to block any remaining activated groups.
Off-rate and kinetic binding experiments were performed at 25° C. using 1×HBS-EP+ buffer. Test and control antibodies were injected over the anti-Fab or anti-Fc surface at concentrations of 5-10 μg/mL for 12 seconds at a flow rate of 10 μL/min on flow cells 2, 3 and 4, followed by a buffer wash for 30 seconds at the same flow rate. […] After capturing ligand (antibody) on the anti-Fc or anti-Fab surface, the analyte (human CD3 epsilon, Acro Cat #CDE-H5223) was bound for 180 seconds, followed by a 600 second dissociation phase at a flow rate of 50 μL/min. Between each ligand capture and analyte binding cycle, regeneration was carried out using two injections of 10 mM Glycine pH 2.0 for 30 seconds at 30 μL/min, followed by a 30 second buffer wash step.
The data was fit with the Biacore T200 Evaluation software, using a 1-1 Langmuir binding model. KD (affinity, nM) was determined as a ratio of the kinetic rate constants calculated from the fits of the association and dissociation phases.

T1 sequence (P07766 23-207 limits assumed): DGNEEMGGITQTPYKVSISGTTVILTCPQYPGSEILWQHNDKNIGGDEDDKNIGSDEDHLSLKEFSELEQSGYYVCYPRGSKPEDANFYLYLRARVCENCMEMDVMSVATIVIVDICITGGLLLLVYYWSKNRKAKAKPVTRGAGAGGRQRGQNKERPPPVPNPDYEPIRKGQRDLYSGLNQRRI
T2 sequence (P07766 23-126 limits assumed): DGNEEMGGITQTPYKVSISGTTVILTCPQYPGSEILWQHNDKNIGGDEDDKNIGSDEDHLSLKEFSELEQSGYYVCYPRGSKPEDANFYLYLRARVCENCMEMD

Binder	Bmax (MFI) [1] [MFI]	Kd [1] [pM]	Kd [2] [pM]	koff [2] [s⁻¹]	kon [2] [M⁻¹ s⁻¹]
2037-B10_Hc-A59D (antibody, human IgG1, lambda, V domains shown, human IgG1, lambda; also called SRP 2037 A59D; 2037-B10_VH-A59D) VH: EVQLVESGGGLVKPGGSLRLSCAASGFTFNKYAMNWVRQAPGKGLEWVARIRTKYNNYDTYYADSVKDRFTISRDDSKNTAYLQMNSLKTEDTAVYYCVRHGNFGNSYISYWAYWGQGTPVTVSS VL: QTVVTQEPSLTVSPGGTVTLTCGSSTGAVTSGYYPNWLQQKPGQAPRGLIGGTKFLAPGTPARFSGSLLGGKAALTLSGVQPEDEAEYYCALWYSNRWVFGGGTQLTVTG	742	70	476	0.000251	527000
2037-B10_Hc-R52D (antibody, human IgG1, lambda, V domains shown, human IgG1, lambda; also called SRP 2037 R52D; 2037-B10_VH-R52D) VH: EVQLVESGGGLVKPGGSLRLSCAASGFTFNKYAMNWVRQAPGKGLEWVARIDTKYNNYATYYADSVKDRFTISRDDSKNTAYLQMNSLKTEDTAVYYCVRHGNFGNSYISYWAYWGQGTPVTVSS VL: QTVVTQEPSLTVSPGGTVTLTCGSSTGAVTSGYYPNWLQQKPGQAPRGLIGGTKFLAPGTPARFSGSLLGGKAALTLSGVQPEDEAEYYCALWYSNRWVFGGGTQLTVTG	142	14100			
2037-B10_Hc-A33D (antibody, human IgG1, V domains shown, human IgG1, lambda; also called SRP 2037 A33D; 2037-B10_VH-A33D) VH: EVQLVESGGGLVKPGGSLRLSCAASGFTFNKYDMNWVRQAPGKGLEWVARIRTKYNNYATYYADSVKDRFTISRDDSKNTAYLQMNSLKTEDTAVYYCVRHGNFGNSYISYWAYWGQGTPVTVSS VL: QTVVTQEPSLTVSPGGTVTLTCGSSTGAVTSGYYPNWLQQKPGQAPRGLIGGTKFLAPGTPARFSGSLLGGKAALTLSGVQPEDEAEYYCALWYSNRWVFGGGTQLTVTG	103	8570			
2037-B10_Hc-N106D (antibody, human IgG1, lambda, V domains shown, human IgG1, lambda; also called SRP 2037 N106D; 2037-B10_VH-N106D) VH: EVQLVESGGGLVKPGGSLRLSCAASGFTFNKYAMNWVRQAPGKGLEWVARIRTKYNNYATYYADSVKDRFTISRDDSKNTAYLQMNSLKTEDTAVYYCVRHGNFGDSYISYWAYWGQGTPVTVSS VL: QTVVTQEPSLTVSPGGTVTLTCGSSTGAVTSGYYPNWLQQKPGQAPRGLIGGTKFLAPGTPARFSGSLLGGKAALTLSGVQPEDEAEYYCALWYSNRWVFGGGTQLTVTG	1010	260	841	0.000277	329000
2037-B10_Lc-S95D (antibody, V domains shown, human IgG1, lambda; also called SRP 2037 S95D; 2037-B10 VL-S95D) VH: not shown VL: QTVVTQEPSLTVSPGGTVTLTCGSSTGAVTSGYYPNWLQQKPGQAPRGLIGGTKFLAPGTPARFSGSLLGGKAALTLSGVQPEDEAEYYCALWYDNRWVFGGGTQLTVTG	896	290			

Further binders by falling Kd [1], results first:

Bmax (MFI) [1] [MFI]	Kd [1] [pM]	Kd [2] [pM]	koff [2] [s⁻¹]	kon [2] [M⁻¹ s⁻¹]	Binder
166	28600	85000	0.000583	6860	2037-B10_Hc-N103D (antibody, human IgG1, lambda, V domains shown, human IgG1, lambda; also called SRP 2037 N103D; 2037-B10_VH-N103D) VH: EVQLVESGGGLVKPGGSLRLSCAASGFTFNKYAMNWVRQAPGKGLEWVARIRTKYNNYATYYADSVKDRFTISRDDSKNTAYLQMNSLKTEDTAVYYCVRHGDFGNSYISYWAYWGQGTPVTVSS VL: QTVVTQEPSLTVSPGGTVTLTCGSSTGAVTSGYYPNWLQQKPGQAPRGLIGGTKFLAPGTPARFSGSLLGGKAALTLSGVQPEDEAEYYCALWYSNRWVFGGGTQLTVTG
1010	360	767	0.000207	270000	2037-B10_Hc-G105D (antibody, human IgG1, lambda, V domains shown, human IgG1, lambda; also called SRP 2037 G105D; 2037-B10_VH-G105D) VH: EVQLVESGGGLVKPGGSLRLSCAASGFTFNKYAMNWVRQAPGKGLEWVARIRTKYNNYATYYADSVKDRFTISRDDSKNTAYLQMNSLKTEDTAVYYCVRHGNFDNSYISYWAYWGQGTPVTVSS VL: QTVVTQEPSLTVSPGGTVTLTCGSSTGAVTSGYYPNWLQQKPGQAPRGLIGGTKFLAPGTPARFSGSLLGGKAALTLSGVQPEDEAEYYCALWYSNRWVFGGGTQLTVTG
820	120	239	0.00019	796000	2037-B10_Hc-Y108D (antibody, human IgG1, lambda, V domains shown, human IgG1, lambda; also called 2037-B10_VH-Y108D) VH: EVQLVESGGGLVKPGGSLRLSCAASGFTFNKYAMNWVRQAPGKGLEWVARIRTKYNNYATYYADSVKDRFTISRDDSKNTAYLQMNSLKTEDTAVYYCVRHGNFGNSDISYWAYWGQGTPVTVSS VL: QTVVTQEPSLTVSPGGTVTLTCGSSTGAVTSGYYPNWLQQKPGQAPRGLIGGTKFLAPGTPARFSGSLLGGKAALTLSGVQPEDEAEYYCALWYSNRWVFGGGTQLTVTG
